Results reported in PMC8561740.

Target: bovine thyroglobulin (natively iodinated) (bovine) (UniProt P01267)
Assay: cryo-EM structure; single-particle cryoEM; Tg at 7 mg/ml in 10 mM HEPES pH 7.4, 100 mM NaCl with 0.2% (w/v) CHAPS; vitrified at 4°C; C2 symmetry expansion, focused refinements

- stoichiometry N: 2
Substance: bovine thyroglobulin (natively iodinated) (from UniProt P01267 20-2769) (natural protein)
